From the supplement of paper PMC7125110
± gives the standard error. This sample holds only a part of the variants without activity.

B1: glmS ribozyme (parent)
chain: AUAAAAGCGCCAGAACUACAGAAAUGUAGUUGACGAGGAGGAGGUUUAUCGAAUUUUCGGCGGAUGCCUCCAAA

Key:
Settings in all cases: with glucosamine-6-phosphate
[1] = variants of: B1; assay: self-cleavage kobs at 40 uM GlcN6P; higher = faster cleavage; RNA array
In short: (§1)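 E. coli RNA polymerase transcribed barcoded ribozyme variants in situ on sequenced MiSeq chips, which were tracked via a hybridised Cy3 probe at 37 °C. Tiles were imaged over ~14 h after glucosamine-6-phosphate (40 μM to 10 mM) in HEPES/KCl/Mg(OAc)2 buffer was flowed in. Normalised per-tile medians were fit to one- or two-exponential decays for kobs, and kcat and KM came from weighted Michaelis–Menten fits.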

[2] = variants of: B1; assay: self-cleavage kobs at 640 uM GlcN6P; higher = faster cleavage; RNA array
In short: as §1

[3] = variants of: B1; assay: self-cleavage kobs at 10000 uM GlcN6P; higher = faster cleavage; RNA array
In short: as §1

[4] = variants of: B1; assay: self-cleavage kobs at 160 uM GlcN6P; higher = faster cleavage; RNA array
In short: as §1

[5] = variants of: B1; assay: self-cleavage kobs at 2500 uM GlcN6P; higher = faster cleavage; RNA array
In short: as §1

Variant | self-cleavage kobs at 40 uM GlcN6P [1] [s⁻¹] | self-cleavage kobs at 640 uM GlcN6P [2] [s⁻¹] | self-cleavage kobs at 10000 uM GlcN6P [3] [s⁻¹] | self-cleavage kobs at 160 uM GlcN6P [4] [s⁻¹] | self-cleavage kobs at 2500 uM GlcN6P [5] [s⁻¹]
U55A C67A | 0.000444 ± 0.00015 | 0.00115 ± 0.00052 | 0.00563 ± 0.0018 |  | 
A39U A42G C67U | 0.000231 ± 6.2e-05 |  | 0.0241 ± 0.0085 | 0.000536 ± 0.00015 | 0.00297 ± 0.00075
G41U C61G | < 1e-05 | < 1e-05 | < 1e-05 | < 1e-05 | < 1e-05
G37U G40C A64U | < 1e-05 |  | < 1e-05 |  | 
C68A U69C | < 1e-05 |  | 4.51e-05 ± 1.6e-05 |  | 
G38A G40A | < 1e-05 | < 1e-05 | < 1e-05 | < 1e-05 | < 1e-05
C11A G41A C50G G59U | < 1e-05 |  | < 1e-05 |  | 
U46C G62U | < 1e-05 |  | < 1e-05 | < 1e-05 | 
G38U A52U U57G A64G | < 1e-05 |  | < 1e-05 |  | 
G9A A14C G37C G38U U49C U69A | < 1e-05 |  |  |  | 
U47G A52U U69G | 4.05e-05 ± 1.5e-05 |  | 3.79e-05 ± 1.3e-05 |  | 
G29A G37U G40U U65G C68U | < 1e-05 |  |  |  | 
G44U C58G C68U | < 1e-05 | < 1e-05 | < 1e-05 | < 1e-05 | < 1e-05
G37A G51C | < 1e-05 | < 1e-05 | < 1e-05 | < 1e-05 | < 1e-05
A12U A15U A42G | 0.000666 ± 0.00019 | 0.00157 ± 0.00069 |  |  | 0.00849 ± 0.0038
C8A G60U | < 1e-05 | < 1e-05 |  | < 1e-05 | < 1e-05
A6U C10A G41C U46A C70A | < 1e-05 |  | < 1e-05 |  | < 1e-05
G44U A48U | < 1e-05 | < 1e-05 |  | < 1e-05 | < 1e-05
G13C U31A G40U | < 1e-05 | < 1e-05 |  |  | 
U54G C67U | 0.000313 ± 5.9e-05 | 0.00333 ± 0.00057 |  | 0.000612 ± 0.00014 | 0.00208 ± 0.00059
U46A U57C | < 1e-05 |  |  |  | 
A39U C68U C71U | 0.000103 ± 3e-05 |  |  |  | 
G35C U46C | < 1e-05 | < 1e-05 |  |  | < 1e-05

Variant | self-cleavage kobs at 40 uM GlcN6P [1] [s⁻¹] | self-cleavage kobs at 640 uM GlcN6P [2] [s⁻¹] | self-cleavage kobs at 10000 uM GlcN6P [3] [s⁻¹] | self-cleavage kobs at 160 uM GlcN6P [4] [s⁻¹] | self-cleavage kobs at 2500 uM GlcN6P [5] [s⁻¹]
C34A G59U | < 1e-05 | < 1e-05 | < 1e-05 | < 1e-05 | < 1e-05
C10G U47G C70U C71G | < 1e-05 | 0.00148 ± 0.00064 |  |  | 
C10G U65G | < 1e-05 | < 1e-05 | < 1e-05 | < 1e-05 | < 1e-05
C16U C70U | 0.00111 ± 0.00017 | 0.00284 ± 0.0011 | 0.00694 ± 0.0028 | 0.000974 ± 0.0002 | 0.00209 ± 0.0004
A15U G62C | < 1e-05 | < 1e-05 | < 1e-05 |  | 
A6G C8G A39C U55C C70A | < 1e-05 |  | < 1e-05 |  | 
C16G G35U | < 1e-05 | < 1e-05 | < 1e-05 | < 1e-05 | < 1e-05
G13A G44A | < 1e-05 |  |  |  | 
C11U C34A | < 1e-05 | < 1e-05 |  |  | 
G40A G41C C61G | < 1e-05 | < 1e-05 |  |  | < 1e-05
C11U G37U G43U G63U | < 1e-05 |  | < 1e-05 |  | < 1e-05
A33U G37U C50G U69A | 8.34e-05 ± 2.3e-05 |  | 0.000105 ± 2.5e-05 |  | 
G7U A39G | < 1e-05 | < 1e-05 | < 1e-05 | < 1e-05 | < 1e-05
U30C G38U C61U | < 1e-05 |  |  |  | 
A15U A52U C70A | < 1e-05 |  |  |  | 
G32U U69G | 7.55e-05 ± 1.7e-05 | 0.000345 ± 8.4e-05 | 9.29e-05 ± 1.7e-05 |  | 
G9U C16U G43U A53U | < 1e-05 |  | < 1e-05 |  | 
G29A G35U C50U | < 1e-05 |  | < 1e-05 |  | 
C16U C61G U65G | < 1e-05 |  |  |  | 
C10U C11A | < 1e-05 |  |  | < 1e-05 | 
G13A C16G U65G | < 1e-05 |  | 3.8e-05 ± 1.6e-05 |  | 
C10G G29C G40A | < 1e-05 |  | < 1e-05 |  | 
C16A U55A G63U | < 1e-05 |  |  |  | 

Variant | self-cleavage kobs at 40 uM GlcN6P [1] [s⁻¹] | self-cleavage kobs at 640 uM GlcN6P [2] [s⁻¹] | self-cleavage kobs at 10000 uM GlcN6P [3] [s⁻¹] | self-cleavage kobs at 160 uM GlcN6P [4] [s⁻¹] | self-cleavage kobs at 2500 uM GlcN6P [5] [s⁻¹]
A53U C68U | 0.000159 ± 2.1e-05 | 0.000788 ± 9.5e-05 | 0.00507 ± 0.00083 | 0.000357 ± 0.00011 | 0.00421 ± 0.00073
U30C G43U C70A | < 1e-05 |  |  |  | 
G62C U65A | < 1e-05 |  |  |  | 
C10A G43A | < 1e-05 |  |  |  | 
A6G A14U U55G C68G | < 1e-05 |  |  |  | 
C10U A42U | < 1e-05 | < 1e-05 | < 1e-05 | < 1e-05 | < 1e-05
G59U A64U | < 1e-05 | < 1e-05 | < 1e-05 |  | < 1e-05
G29A C71U | 0.000141 ± 2e-05 | 0.000549 ± 7.9e-05 | 0.00436 ± 0.00077 | 0.000261 ± 8.2e-05 | 0.00526 ± 0.0012
C58A G59U C68U | < 1e-05 |  |  |  | 
A6G C71G | < 1e-05 | < 1e-05 |  | < 1e-05 | < 1e-05
A42G C61G | < 1e-05 | < 1e-05 | < 1e-05 | < 1e-05 | 
C61G U65C G66A | < 1e-05 |  | < 1e-05 |  | 
G9U A33G | < 1e-05 | < 1e-05 |  | < 1e-05 | < 1e-05
U46G A53U U69C | 7.38e-05 ± 2.7e-05 |  | 0.00109 ± 0.0003 |  | 
G40C A42C | < 1e-05 | < 1e-05 | < 1e-05 | < 1e-05 | < 1e-05
G9A C16U | < 1e-05 | < 1e-05 | 3.09e-05 ± 1.5e-05 | < 1e-05 | < 1e-05
U31G U45G C61A | < 1e-05 |  | < 1e-05 |  | < 1e-05
C16G C34A G38C U65C | < 1e-05 |  |  |  | 
A33U C67G | < 1e-05 | < 1e-05 |  | < 1e-05 | 
U49C A52C | < 1e-05 |  | < 1e-05 | < 1e-05 | < 1e-05
G13U G35U | < 1e-05 | < 1e-05 | < 1e-05 | < 1e-05 | < 1e-05
C8G A64G | < 1e-05 |  | < 1e-05 | < 1e-05 | < 1e-05
C34A U45G | < 1e-05 | < 1e-05 | < 1e-05 | < 1e-05 | < 1e-05

Variant | self-cleavage kobs at 40 uM GlcN6P [1] [s⁻¹] | self-cleavage kobs at 640 uM GlcN6P [2] [s⁻¹] | self-cleavage kobs at 10000 uM GlcN6P [3] [s⁻¹] | self-cleavage kobs at 160 uM GlcN6P [4] [s⁻¹] | self-cleavage kobs at 2500 uM GlcN6P [5] [s⁻¹]
G9A U55C C71A | < 1e-05 | < 1e-05 |  |  | < 1e-05
A42C U65C | < 1e-05 | < 1e-05 | < 1e-05 | < 1e-05 | < 1e-05
U45G A64U | < 1e-05 |  | 9.64e-05 ± 1.8e-05 | < 1e-05 | 
A6G C10A G13A G62A U65A | < 1e-05 |  | < 1e-05 |  | 
G7A C67U | < 1e-05 | < 1e-05 |  | < 1e-05 | 
G9U G32C A42U | < 1e-05 | < 1e-05 | < 1e-05 |  | 
A48U G60C C61U | < 1e-05 | < 1e-05 |  |  | 
A6G G51A | < 1e-05 | < 1e-05 | < 1e-05 | < 1e-05 | < 1e-05
G21U C67G | 9.41e-05 ± 2.8e-05 |  | 0.00119 ± 0.00023 |  | 0.000139 ± 4.1e-05
G32U C58G A64G C67A | 7.51e-05 ± 2.6e-05 |  | 0.000152 ± 2.4e-05 |  | 
G37A U56A | 1.92e-05 ± 6.8e-06 |  | 0.000962 ± 0.00011 | 4.84e-05 ± 1.8e-05 | 
A6C G37U G44U | < 1e-05 |  |  |  | 
A6C G43C | < 1e-05 | < 1e-05 | < 1e-05 | < 1e-05 | 
A15G G37C C58U | < 1e-05 |  |  |  | 
A6G A52G A53G C67G | 6.36e-05 ± 3.1e-05 | 0.00028 ± 0.00011 |  |  | 
C34G C50A | < 1e-05 | < 1e-05 |  |  | 
A39G G63U G66A | < 1e-05 | < 1e-05 | < 1e-05 |  | < 1e-05
G29C G37U G63U | < 1e-05 |  |  |  | 
A33G G40C U56G | < 1e-05 |  |  |  | 
G7U C70G C71G | 4.02e-05 ± 2e-05 | 0.000251 ± 8.1e-05 |  |  | 
A33G U45C | < 1e-05 | < 1e-05 |  |  | < 1e-05
